Source: the supplement of paper PMC10567573

B1: RAD54B (parent)
chain: YVQEKRDGLKRRQQLEEELLRAKI

Variants of: B1
Test: protein stability index of a GFP-peptide fusion (GPS, HEK-293T) (PSI 1-6); higher = more stable
Conditions: c terminus: a fixed tail appended
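Note: lentivirally expressed fusions sorted by FACS into six bins by GFP to DsRed ratio, PSI derived from sequencing read proportions per bin multiplied by bin number.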

Variant	protein stability index
YVQEKRDGLKRRQQLEVELLRAKI [E17V]	2.25
YVQEKRDGLKRRQQLEKELLRAKI [E17K]	1.9
YVQEKRDGLKRRQQLEFELLRAKI [E17F]	1.87
YVQEKRDGLKRRQQLETELLRAKI [E17T]	2.08
YVQEKRDGLKRRQQLEYELLRAKI [E17Y]	1.36
YVQEKRDGLKRRQQLECELLRAKI [E17C]	2.21
YVQEKRDGLKRRQQLEPELLRAKI [E17P]	1.98
YVQEKRDGLKRRQQLESELLRAKI [E17S]	2.15
YVQEKRDGLKRRQQLEWELLRAKI [E17W]	1.9
YVQEKRDGLKRRQQLERELLRAKI [E17R]	2.44
YVQEKRDGLKRRQQLEMELLRAKI [E17M]	2.21
YVQEKRDGLKRRQQLELELLRAKI [E17L]	2.19
YVQEKRDGLKRRQQLEAELLRAKI [E17A]	1.6
YVQEKRDGLKRRQQLEDELLRAKI [E17D]	2.01
YVQEKRDGLKRRQQLEQELLRAKI [E17Q]	1.51
YVQEKRDGLKRRQQLEHELLRAKI [E17H]	1.84
YVQEKRDGLKRRQQLEIELLRAKI [E17I]	2.45
YVQEKRDGLKRRQQLENELLRAKI [E17N]	2
YVQEKRDGLKRRQQLEGELLRAKI [E17G]	2.35
YVQEKRDGLKRRQMLEEELLRAKI [Q14M]	1.75
YVQEKRDGLKRRQELEEELLRAKI [Q14E]	2
YVQEKRDGLKRRQRLEEELLRAKI [Q14R]	2.09
YVQEKRDGLKRRQGLEEELLRAKI [Q14G]	2.33
YVQEKRDGLKRRQFLEEELLRAKI [Q14F]	2.12

Variant	protein stability index
YVQEKRDGLKRRQHLEEELLRAKI [Q14H]	1.94
YVQEKRDGLKRRQYLEEELLRAKI [Q14Y]	2.25
YVQEKRDGLKRRQPLEEELLRAKI [Q14P]	1.99
YVQEKRDGLKRRQALEEELLRAKI [Q14A]	1.93
YVQEKRDGLKRRQLLEEELLRAKI [Q14L]	1.86
YVQEKRDGLKRRQKLEEELLRAKI [Q14K]	2.35
YVQEKRDGLKRRQCLEEELLRAKI [Q14C]	1.77
YVQEKRDGLKRRQDLEEELLRAKI [Q14D]	2.2
YVQEKRDGLKRRQSLEEELLRAKI [Q14S]	1.67
YVQEKRDGLKRRQTLEEELLRAKI [Q14T]	1.75
YVQEKRDGLKRRQWLEEELLRAKI [Q14W]	2.12
YVQEKRDGLKRRQNLEEELLRAKI [Q14N]	1.65
YVQEKRDGLKRRQVLEEELLRAKI [Q14V]	2.01
YVQEKRDGLKRRQILEEELLRAKI [Q14I]	1.76
YVQEKRDGLKRRQQLEEEELRAKI [L19E]	1.95
YVQEKRDGLKRRQQLEEECLRAKI [L19C]	1.95
YVQEKRDGLKRRQQLEEEHLRAKI [L19H]	2.16
YVQEKRDGLKRRQQLEEEALRAKI [L19A]	1.96
YVQEKRDGLKRRQQLEEEKLRAKI [L19K]	2.42
YVQEKRDGLKRRQQLEEEILRAKI [L19I]	1.88
YVQEKRDGLKRRQQLEEEFLRAKI [L19F]	2.37
YVQEKRDGLKRRQQLEEESLRAKI [L19S]	2.45
YVQEKRDGLKRRQQLEEEMLRAKI [L19M]	2.06
YVQEKRDGLKRRQQLEEEQLRAKI [L19Q]	1.78

Variant	protein stability index
YVQEKRDGLKRRQQLEEEPLRAKI [L19P]	2.34
YVQEKRDGLKRRQQLEEEDLRAKI [L19D]	2.3
YVQEKRDGLKRRQQLEEETLRAKI [L19T]	1.75
YVQEKRDGLKRRQQLEEENLRAKI [L19N]	2.14
YVQEKRDGLKRRQQLEEEWLRAKI [L19W]	2.17
YVQEKRDGLKRRQQLEEERLRAKI [L19R]	2.38
YVQEKRDGLKRRQQLEEEYLRAKI [L19Y]	1.55
YVQEKRDGLKRRQQLEEEGLRAKI [L19G]	2.54
YVQEKRDGLKRRQQLEEEVLRAKI [L19V]	1.7
YVQEKRDGLKRRQQLEEELLRTKI [A22T]	1.98
YVQEKRDGLKRRQQLEEELLRSKI [A22S]	2.16
YVQEKRDGLKRRQQLEEELLRLKI [A22L]	1.99
YVQEKRDGLKRRQQLEEELLRYKI [A22Y]	1.81
YVQEKRDGLKRRQQLEEELLRHKI [A22H]	1.52
YVQEKRDGLKRRQQLEEELLRDKI [A22D]	2.29
YVQEKRDGLKRRQQLEEELLRCKI [A22C]	1.83
YVQEKRDGLKRRQQLEEELLRPKI [A22P]	1.68
YVQEKRDGLKRRQQLEEELLRIKI [A22I]	2.32
YVQEKRDGLKRRQQLEEELLRQKI [A22Q]	2
YVQEKRDGLKRRQQLEEELLRRKI [A22R]	1.83
YVQEKRDGLKRRQQLEEELLRNKI [A22N]	2.01
YVQEKRDGLKRRQQLEEELLRFKI [A22F]	2.06
YVQEKRDGLKRRQQLEEELLRGKI [A22G]	1.89
YVQEKRDGLKRRQQLEEELLREKI [A22E]	2.92

Variant	protein stability index
YVQEKRDGLKRRQQLEEELLRMKI [A22M]	2.27
YVQEKRDGLKRRQQLEEELLRVKI [A22V]	2.45
YVQEKRDGLKRRQQLEEELLRKKI [A22K]	1.82
YVQEKRDGLKRRQQLEEELLRWKI [A22W]	2
YVQEKRDGLKRRQQLPEELLRAKI [E16P]	1.56
YVQEKRDGLKRRQQLHEELLRAKI [E16H]	1.74
YVQEKRDGLKRRQQLIEELLRAKI [E16I]	1.51
YVQEKRDGLKRRQQLTEELLRAKI [E16T]	1.83
YVQEKRDGLKRRQQLREELLRAKI [E16R]	1.53
YVQEKRDGLKRRQQLKEELLRAKI [E16K]	1.67
YVQEKRDGLKRRQQLDEELLRAKI [E16D]	1.77
YVQEKRDGLKRRQQLVEELLRAKI [E16V]	2.24
YVQEKRDGLKRRQQLLEELLRAKI [E16L]	2.17
YVQEKRDGLKRRQQLWEELLRAKI [E16W]	1.73
YVQEKRDGLKRRQQLFEELLRAKI [E16F]	2.74
YVQEKRDGLKRRQQLNEELLRAKI [E16N]	2.07
YVQEKRDGLKRRQQLQEELLRAKI [E16Q]	1.8
YVQEKRDGLKRRQQLAEELLRAKI [E16A]	1.98
YVQEKRDGLKRRQQLMEELLRAKI [E16M]	1.74
YVQEKRDGLKRRQQLGEELLRAKI [E16G]	2.41
YVQEKRDGLKRRQQLYEELLRAKI [E16Y]	1.73
YVQEKRDGLKRRQQLSEELLRAKI [E16S]	1.39
